In this assay the target is PKM2 (mouse (endogenous in splenic B cells of C57BL/6J mice)) (UniProt P52480). Description: cross-linking; lysates of purified CD19+ splenic B cells from C57BL/6J mice cultured with or without Hcy (100 μmol/L) for 24 h, cross-linked with glutaraldehyde; Western blot for PKM2 oligomer states.

Several values for one entry are separate records, joined by “and”; a condition that tells them apart may be missing. Equal values may be shown once.

A word on the stoichiometry N: it is a count of units in the complex or per binding partner.

Chain of PKM2, P52480 1-531 (enzyme; other documents disagree on this pair) (P52480 whole entry): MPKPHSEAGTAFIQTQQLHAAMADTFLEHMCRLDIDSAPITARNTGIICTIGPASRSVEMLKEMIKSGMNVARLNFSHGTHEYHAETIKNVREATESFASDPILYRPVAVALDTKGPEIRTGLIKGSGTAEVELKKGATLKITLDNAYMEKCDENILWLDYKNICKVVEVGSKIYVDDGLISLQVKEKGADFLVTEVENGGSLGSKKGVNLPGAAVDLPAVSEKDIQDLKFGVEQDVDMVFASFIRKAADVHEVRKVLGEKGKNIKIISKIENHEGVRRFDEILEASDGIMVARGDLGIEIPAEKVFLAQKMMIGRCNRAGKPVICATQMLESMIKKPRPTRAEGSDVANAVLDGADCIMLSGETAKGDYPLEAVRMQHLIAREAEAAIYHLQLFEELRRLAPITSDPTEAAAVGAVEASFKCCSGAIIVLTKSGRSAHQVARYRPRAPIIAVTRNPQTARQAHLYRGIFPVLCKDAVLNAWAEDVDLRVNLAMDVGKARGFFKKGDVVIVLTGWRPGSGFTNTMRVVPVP

Regarding “PKM2, P52480 1-531 (enzyme; other documents disagree on this pair)”, the stoichiometry N is 4 and 2.

Values taken from publication PMC9226200.
